Experimental data taken from PMC4605301, “hSSB1 (NABP2/ OBFC2B) is required for the repair of 8-oxo-guanine by the hOGG1-mediated base excision repair pathway”.

Biological target: hSSB1 (NABP2/OBFC2B) (Homo sapiens, UniProt Q9BQ15 1-211)
Experiment: EMSA; 0-2 uM hSSB1; 90 fmol DNA in 10 ul; 8-oxoG opposite C (pairing base inferred); EMSA: 50 mM Tris-HCl pH 7.5, 100 mM KCl, 100 ug/ml BSA, 15 min at 37 C; 8% polyacrylamide gel
Settings: protein: recombinant; tags: N-terminal His6; label: 5' FAM; blunt

Sequence of hSSB1 (NABP2/OBFC2B) (Q9BQ15 whole entry): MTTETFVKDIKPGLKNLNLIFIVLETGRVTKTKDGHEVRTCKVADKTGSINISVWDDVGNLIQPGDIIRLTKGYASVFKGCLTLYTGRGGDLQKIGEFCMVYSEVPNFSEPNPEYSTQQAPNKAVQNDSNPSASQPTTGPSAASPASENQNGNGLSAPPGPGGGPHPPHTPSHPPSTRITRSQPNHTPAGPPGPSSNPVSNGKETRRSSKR

B1: 8-oxoG:C dsDNA (dsDNA)
DNA 1: CTCTCCCTTCGCTCCTTTCCTCT
DNA 2: AGAGGAAAGGAGCGAAGGGAGAG
modifications: 8-oxoguanine at position 11 of strand 1 (written G)
binding result: binds
